# Experiments:
# [1] = target: HIF1β (human (endogenous in LS174T and in patient renal tissue)) (UniProt P27540); assay: FRET or BRET; FuncOmap: Ef computed for each coincidence region of the two-site aiFRET/FLIM images of tissue microarray cores (HIF1β/HIF2α: B7, A5; PD-1/PD-L1: B7, B5, A5); Otsu thresholding; Ef below 4% regarded as non-interactive
# [2] = target: HIF1β (human (endogenous in LS174T and in patient renal tissue)) (UniProt P27540); assay: FRET or BRET; two-site amplified FRET (aFRET) read by frequency-domain FLIM on PFA-fixed, permeabilised LS174T cells under hypoxia (1% O2, 48 h); donor ATTO488 on anti-HIF-1β, acceptor Alexa594 (TSA) on anti-HIF-2α; Ef below 4% regarded as non-interactive
# [3] = target: HIF1β (human (endogenous in LS174T and in patient renal tissue)) (UniProt P27540); assay: FRET or BRET; FuncOmap: Ef computed for each coincidence region of the two-site aFRET/FLIM images, HIF1β/HIF2α in ccRCC core B5; Otsu thresholding; Ef below 4% regarded as non-interactive
# [4] = target: HIF1β (human (endogenous in LS174T and in patient renal tissue)) (UniProt P27540); assay: FRET or BRET; two-site aiFRET read by frequency-domain FLIM on tissue microarray cores (normal renal tissue B7, ccRCC cores A1 and A2); median Ef over 10-20 hand-picked regions of interest; donor ATTO488 on HIF1β or PD-1, acceptor Alexa594 (TSA) on HIF2α or PD-L1; Ef below 4% regarded as non-interactive
# [5] = target: PD-1 (human (endogenous in patient renal tissue)) (UniProt Q15116); assay: FRET or BRET; FuncOmap: Ef computed for each coincidence region of the two-site aiFRET/FLIM images of tissue microarray cores (HIF1β/HIF2α: B7, A5; PD-1/PD-L1: B7, B5, A5); Otsu thresholding; Ef below 4% regarded as non-interactive
# Sequence of PD-1 (human (endogenous in patient renal tissue)) (Q15116 25-288): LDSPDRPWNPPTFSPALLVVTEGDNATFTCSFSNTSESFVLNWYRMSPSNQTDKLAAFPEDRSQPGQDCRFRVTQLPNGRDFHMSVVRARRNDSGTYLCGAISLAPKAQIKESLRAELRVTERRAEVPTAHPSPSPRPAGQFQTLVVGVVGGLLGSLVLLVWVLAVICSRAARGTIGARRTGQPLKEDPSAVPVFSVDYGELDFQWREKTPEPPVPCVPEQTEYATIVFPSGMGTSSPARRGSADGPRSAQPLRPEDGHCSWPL
# [6] = target: PD-1 (human (endogenous in patient renal tissue)) (UniProt Q15116); assay: FRET or BRET; two-site aiFRET read by frequency-domain FLIM on tissue microarray cores (normal renal tissue B7, ccRCC cores A1 and A2); median Ef over 10-20 hand-picked regions of interest; donor ATTO488 on HIF1β or PD-1, acceptor Alexa594 (TSA) on HIF2α or PD-L1; Ef below 4% regarded as non-interactive
# Sequence of HIF1β (human (endogenous in LS174T and in patient renal tissue)) (P27540 whole entry): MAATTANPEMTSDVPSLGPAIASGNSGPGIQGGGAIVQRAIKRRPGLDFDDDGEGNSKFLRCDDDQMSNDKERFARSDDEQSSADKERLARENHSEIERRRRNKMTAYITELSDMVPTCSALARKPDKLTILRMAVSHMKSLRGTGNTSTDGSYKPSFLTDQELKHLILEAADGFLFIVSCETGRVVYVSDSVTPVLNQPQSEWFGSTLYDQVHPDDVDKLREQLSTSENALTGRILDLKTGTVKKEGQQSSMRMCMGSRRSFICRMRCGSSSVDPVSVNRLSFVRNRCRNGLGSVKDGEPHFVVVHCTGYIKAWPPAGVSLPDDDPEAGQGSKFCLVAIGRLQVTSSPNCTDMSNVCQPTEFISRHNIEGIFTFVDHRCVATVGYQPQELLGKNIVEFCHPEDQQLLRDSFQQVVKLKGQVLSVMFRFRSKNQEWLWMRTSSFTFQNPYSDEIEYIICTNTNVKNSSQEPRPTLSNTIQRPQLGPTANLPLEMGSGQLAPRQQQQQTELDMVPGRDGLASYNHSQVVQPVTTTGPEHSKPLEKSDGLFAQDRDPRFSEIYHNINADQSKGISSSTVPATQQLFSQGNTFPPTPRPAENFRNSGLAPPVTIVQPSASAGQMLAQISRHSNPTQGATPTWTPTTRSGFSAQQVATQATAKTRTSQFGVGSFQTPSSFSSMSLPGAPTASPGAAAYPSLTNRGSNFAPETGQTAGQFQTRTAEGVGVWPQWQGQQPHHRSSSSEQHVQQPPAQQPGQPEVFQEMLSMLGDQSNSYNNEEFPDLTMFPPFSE
# Sequence of PD-L1 (Q9NZQ7 19-290): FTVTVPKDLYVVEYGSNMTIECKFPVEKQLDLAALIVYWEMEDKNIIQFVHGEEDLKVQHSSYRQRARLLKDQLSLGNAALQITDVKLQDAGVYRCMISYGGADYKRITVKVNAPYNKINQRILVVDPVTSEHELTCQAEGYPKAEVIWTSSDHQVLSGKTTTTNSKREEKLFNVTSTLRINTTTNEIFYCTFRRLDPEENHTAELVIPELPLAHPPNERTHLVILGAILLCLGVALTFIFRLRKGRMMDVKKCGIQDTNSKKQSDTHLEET
substance,measurement,setting,value
HIF2α (from UniProt Q99814 1-870) (natural protein),"Ef, core A5, region 12",[1],12.2%
same,"Ef, core A5, region 78",[1],13.5%
same,"Ef, core A5, region 83",[1],12.7%
same,"Ef, core A5, region 131",[1],13.5%
same,"Ef, core A5, region 168",[1],12.2%
same,"Ef, core A5, region 187",[1],12.2%
same,"Ef, core A5, region 189",[1],16%
same,"Ef, core A5, region 235",[1],15.4%
same,"Ef, core A5, region 276",[1],12.2%
same,"Ef, core A5, region 294",[1],13.5%
same,"Ef, core A5, region 383",[1],16%
same,"Ef, core A5, region 400",[1],12.2%
same,"Ef, core A5, region 531",[1],13.5%
same,"Ef, core A5, region 619",[1],13.5%
same,"Ef, core A5, region 679",[1],12.2%
same,"Ef, core A5, region 733",[1],11.4%
same,"Ef, core A5, region 817",[1],13.5%
same,"Ef, core A5, region 822",[1],12.2%
same,"Ef, core A5, region 826",[1],12.2%
same,"Ef, core A5, region 829",[1],16%
same,"Ef, core A5, region 1273",[1],12.2%
same,"Ef, core A5, region 1299",[1],16%
same,"Ef, core A5, region 1302",[1],19.8%
same,"Ef, core A5, region 1307",[1],21.1%
same,"Ef, core A5, region 1308",[1],14.8%
same,"Ef, core B7, region 64",[1],0%
same,"Ef, core B7, region 231",[1],0%
same,"Ef, core B7, region 402",[1],0%
same,"Ef, core B7, region 632",[1],0%
same,"Ef, core B7, region 633",[1],0%
same,"Ef, core B7, region 634",[1],0%
same,"Ef, core B7, region 635",[1],0%
same,"Ef, core B7, region 636",[1],0%
same,"Ef, core B7, region 637",[1],0%
same,"Ef, core B7, region 638",[1],0%
same,"Ef, core B7, region 639",[1],0%
same,"Ef, core B7, region 640",[1],0%
same,"Ef, core B7, region 641",[1],0%
same,"Ef, core B7, region 657",[1],0%
same,"Ef, core B7, region 662",[1],7.66%
same,"Ef, core B7, region 664",[1],0%
same,"Ef, core B7, region 672",[1],4.95%
same,"Ef, core B7, region 685",[1],0%
same,"Ef, core B7, region 686",[1],0%
same,"Ef, core B7, region 712",[1],0%
same,"Ef, core B7, region 719",[1],0%
same,"Ef, core B7, region 729",[1],0%
same,"Ef, core B7, region 754",[1],0%
same,"Ef, core B7, region 943",[1],0%
same,"Ef, core B7, region 950",[1],0%
same,median FRET efficiency (hypoxia),[2],7.75%
same,"Ef, core B5, region 61",[3],0%
same,"Ef, core B5, region 80",[3],0%
same,"Ef, core B5, region 103",[3],0%
same,"Ef, core B5, region 140",[3],0%
same,"Ef, core B5, region 162",[3],0%
same,"Ef, core B5, region 167",[3],0%
same,"Ef, core B5, region 174",[3],0%
same,"Ef, core B5, region 198",[3],0%
same,"Ef, core B5, region 199",[3],0%
same,"Ef, core B5, region 220",[3],0%
same,"Ef, core B5, region 230",[3],0%
same,"Ef, core B5, region 242",[3],0%
same,"Ef, core B5, region 246",[3],0%
same,"Ef, core B5, region 277",[3],0%
same,"Ef, core B5, region 318",[3],0%
same,"Ef, core B5, region 431",[3],0%
same,"Ef, core B5, region 452",[3],0%
same,"Ef, core B5, region 585",[3],0%
same,"Ef, core B5, region 586",[3],0%
same,"Ef, core B5, region 592",[3],0%
same,"Ef, core B5, region 600",[3],0%
same,"Ef, core B5, region 601",[3],0%
same,"Ef, core B5, region 632",[3],0%
same,"Ef, core B5, region 659",[3],0%
same,"Ef, core B5, region 669",[3],0%
same,"median Ef, ccRCC core A1",[4],13.6%
same,"median Ef, ccRCC core A2",[4],9.3%
same,"median Ef, normal tissue",[4],6.7%
PD-L1 (from UniProt Q9NZQ7 19-290) (ligand),"Ef, core A5, region 57",[5],0%
same,"Ef, core A5, region 63",[5],10.9%
same,"Ef, core A5, region 92",[5],8.6%
same,"Ef, core A5, region 110",[5],8.34%
same,"Ef, core A5, region 186",[5],8.16%
same,"Ef, core A5, region 421",[5],5.03%
same,"Ef, core A5, region 448",[5],7.7%
same,"Ef, core A5, region 482",[5],9.31%
same,"Ef, core A5, region 505",[5],7.72%
same,"Ef, core A5, region 564",[5],8.82%
same,"Ef, core A5, region 639",[5],11.2%
same,"Ef, core A5, region 653",[5],12.1%
same,"Ef, core A5, region 812",[5],16.7%
same,"Ef, core A5, region 823",[5],9.22%
same,"Ef, core A5, region 929",[5],8.25%
same,"Ef, core A5, region 949",[5],6.49%
same,"Ef, core A5, region 1053",[5],12.9%
same,"Ef, core A5, region 1064",[5],10.6%
same,"Ef, core A5, region 1113",[5],4.28%
same,"Ef, core A5, region 1241",[5],6.86%
same,"Ef, core A5, region 1250",[5],10.1%
same,"Ef, core A5, region 1255",[5],8.24%
same,"Ef, core A5, region 1274",[5],8.32%
same,"Ef, core A5, region 1360",[5],6.13%
same,"Ef, core A5, region 1405",[5],12.4%
same,"Ef, core B5, region 81",[5],21.8%
same,"Ef, core B5, region 107",[5],30.6%
same,"Ef, core B5, region 176",[5],28.4%
same,"Ef, core B5, region 249",[5],23.6%
same,"Ef, core B5, region 261",[5],15.7%
same,"Ef, core B5, region 373",[5],24%
same,"Ef, core B5, region 546",[5],24.8%
same,"Ef, core B5, region 551",[5],16.4%
same,"Ef, core B5, region 586",[5],17%
same,"Ef, core B5, region 622",[5],23.1%
same,"Ef, core B5, region 774",[5],25.1%
same,"Ef, core B5, region 841",[5],29.4%
same,"Ef, core B5, region 930",[5],28.3%
same,"Ef, core B5, region 1104",[5],21.1%
same,"Ef, core B5, region 1155",[5],20.4%
same,"Ef, core B5, region 1187",[5],0%
same,"Ef, core B5, region 1246",[5],15.8%
same,"Ef, core B5, region 1288",[5],26.3%
same,"Ef, core B5, region 1500",[5],28.5%
same,"Ef, core B5, region 1612",[5],13.9%
same,"Ef, core B5, region 1772",[5],20.8%
same,"Ef, core B5, region 1811",[5],24%
same,"Ef, core B5, region 1878",[5],18.1%
same,"Ef, core B5, region 2043",[5],20.4%
same,"Ef, core B5, region 2232",[5],28.3%
same,"Ef, core B7, region 24",[5],21.5%
same,"Ef, core B7, region 67",[5],14.2%
same,"Ef, core B7, region 102",[5],16.1%
same,"Ef, core B7, region 197",[5],21.2%
same,"Ef, core B7, region 233",[5],48.4%
same,"Ef, core B7, region 299",[5],16.3%
same,"Ef, core B7, region 356",[5],20%
same,"Ef, core B7, region 384",[5],16.5%
same,"Ef, core B7, region 442",[5],19.1%
same,"Ef, core B7, region 548",[5],23.4%
same,"Ef, core B7, region 561",[5],12.8%
same,"Ef, core B7, region 648",[5],26.6%
same,"Ef, core B7, region 772",[5],14.2%
same,"Ef, core B7, region 905",[5],12%
same,"Ef, core B7, region 984",[5],22.3%
same,"Ef, core B7, region 1009",[5],28.9%
same,"Ef, core B7, region 1273",[5],23.4%
same,"Ef, core B7, region 1454",[5],29.9%
same,"Ef, core B7, region 1657",[5],18.1%
same,"Ef, core B7, region 1711",[5],25.7%
same,"Ef, core B7, region 1750",[5],18.1%
same,"Ef, core B7, region 1861",[5],27.4%
same,"Ef, core B7, region 1919",[5],14.7%
same,"Ef, core B7, region 1932",[5],26.4%
same,"Ef, core B7, region 1973",[5],28.4%
same,"median Ef, normal tissue",[6],5.24%
